Read-outs that look alike come from different tables or passages of the source.

This test deals with FGFR1/KLB (Homo sapiens, UniProt P11362+Q86Z14). The test can be described thus: FGFR1/KLB functional assay (PathHunter). The format is cell-based. As for the experimental part: The cells were cultured to 70-80% full in a T-75 flask. The medium was removed and washed with 5 mL of the pre-warmed PBS. PBS was removed, and 2 mL of AssayComplete cell detachment reagent was added, and then incubated in an incubator at 37° C. and 5% CO2 for 3 minutes, and the attached cells were detached. It was mixed with 6 mL of AssayComplete cell plating 0 reagent, and the mixture was transferred to a 15 mL tube, centrifuged at 1,000 rpm for 3 minutes, and then again released in 5 mL of cell plating reagent. The number of cells was counted, and the concentration was allowed to be 500,000 cells/mL. It was transferred to a reservoir, and 40 μL per well was dispensed into a white 96-well half-area cell culture plate using a multi-channel pipette (20,000 cells/well). Only 40 μL of cell plating reagent was dispensed into the blank well. The cells were incubated in an incubator at 37° C. and 5% CO2 for 24 hours to allow to be attached.
10 μL of each of rhFGF21 (5×) and test sample (5×) prepared by 4-fold serial dilution was dispensed in duplicate and cultured at room temperature for 4 hours. 10 μL of AssayComplete cell plating 0 reagent was added to the control and blank wells. After the culture was completed, the medium was removed, and 50 μL of AssayComplete cell plating 0 reagent was added. 30 μL of Detection reagent was dispensed and reacted in a state where light was blocked at room temperature for 1 hour, and then the luminescence was measured with a plate reader.
The luminescence of the sample in the plate was measured with a Synergy Neo2 instrument.
The Delta RLU (relative luminescence unit) (ΔRLU) was calculated as follows.
ΔRLU=RLUsample−RLUblank=Signal−background luminescence
In addition, the fold induction relative to the control group was calculated as follows.
The EC50 values were obtained based on fold induction values by each concentration using GraphPad Prism 8, as follows (curve-fitting of the log (agonist) vs. normalized response−variable slope equation).
In order to test the activity levels of the native FGF21 and the FGF21 analogue at the cellular level (in vitro), the FGFR1/KLB functional assay was performed in the same manner as in Test Example 2.

FGFR1/KLB, sequence (P11362 22-822): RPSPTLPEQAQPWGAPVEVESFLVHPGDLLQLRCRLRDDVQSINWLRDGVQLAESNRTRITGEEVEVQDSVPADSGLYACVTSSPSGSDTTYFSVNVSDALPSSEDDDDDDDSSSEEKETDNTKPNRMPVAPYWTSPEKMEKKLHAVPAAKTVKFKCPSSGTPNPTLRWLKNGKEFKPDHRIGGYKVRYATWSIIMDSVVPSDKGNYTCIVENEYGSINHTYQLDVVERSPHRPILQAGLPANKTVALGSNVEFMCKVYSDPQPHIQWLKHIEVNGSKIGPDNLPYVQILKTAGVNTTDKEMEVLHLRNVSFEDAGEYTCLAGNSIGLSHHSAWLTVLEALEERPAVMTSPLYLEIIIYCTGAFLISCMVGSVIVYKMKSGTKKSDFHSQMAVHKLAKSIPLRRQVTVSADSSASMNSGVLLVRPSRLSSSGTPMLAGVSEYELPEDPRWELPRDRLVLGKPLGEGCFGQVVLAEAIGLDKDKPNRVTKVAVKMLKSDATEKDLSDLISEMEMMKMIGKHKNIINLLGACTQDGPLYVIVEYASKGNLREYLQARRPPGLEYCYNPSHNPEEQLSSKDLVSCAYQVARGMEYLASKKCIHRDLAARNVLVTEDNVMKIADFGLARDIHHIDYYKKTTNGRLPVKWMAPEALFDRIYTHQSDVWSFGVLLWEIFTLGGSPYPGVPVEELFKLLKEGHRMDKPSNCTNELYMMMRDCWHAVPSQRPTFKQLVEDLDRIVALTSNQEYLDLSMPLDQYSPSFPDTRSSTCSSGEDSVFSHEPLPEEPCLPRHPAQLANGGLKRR
FGFR1/KLB, sequence (Q86Z14 whole entry): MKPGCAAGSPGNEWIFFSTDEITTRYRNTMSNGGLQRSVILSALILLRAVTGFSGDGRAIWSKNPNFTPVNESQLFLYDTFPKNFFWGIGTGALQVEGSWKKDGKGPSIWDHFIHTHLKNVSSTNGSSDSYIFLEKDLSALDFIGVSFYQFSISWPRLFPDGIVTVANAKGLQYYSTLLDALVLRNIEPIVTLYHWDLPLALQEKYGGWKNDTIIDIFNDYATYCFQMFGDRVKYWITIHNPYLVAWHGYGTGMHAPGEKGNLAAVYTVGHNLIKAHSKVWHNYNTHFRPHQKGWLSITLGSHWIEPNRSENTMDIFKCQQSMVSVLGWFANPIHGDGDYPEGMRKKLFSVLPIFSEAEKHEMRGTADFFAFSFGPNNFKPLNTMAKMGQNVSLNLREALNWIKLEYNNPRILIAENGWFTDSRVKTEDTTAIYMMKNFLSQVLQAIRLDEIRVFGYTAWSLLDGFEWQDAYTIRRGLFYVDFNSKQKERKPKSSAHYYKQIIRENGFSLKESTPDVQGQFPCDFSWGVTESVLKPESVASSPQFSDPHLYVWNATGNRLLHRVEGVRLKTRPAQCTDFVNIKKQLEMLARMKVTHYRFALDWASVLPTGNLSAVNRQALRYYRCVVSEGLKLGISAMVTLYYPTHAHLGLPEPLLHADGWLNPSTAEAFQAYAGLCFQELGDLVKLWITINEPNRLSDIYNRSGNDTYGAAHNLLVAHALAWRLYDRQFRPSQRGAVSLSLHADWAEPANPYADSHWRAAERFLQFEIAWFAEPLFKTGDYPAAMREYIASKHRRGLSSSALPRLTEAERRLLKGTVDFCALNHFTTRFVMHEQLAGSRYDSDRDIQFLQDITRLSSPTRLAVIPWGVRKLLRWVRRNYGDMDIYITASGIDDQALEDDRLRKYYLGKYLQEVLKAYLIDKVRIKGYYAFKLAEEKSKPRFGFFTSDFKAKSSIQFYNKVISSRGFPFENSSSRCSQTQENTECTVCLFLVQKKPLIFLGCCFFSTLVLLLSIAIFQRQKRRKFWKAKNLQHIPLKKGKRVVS

B1: rhFGF21: native FGF21, SEQ ID NO: 17 (protein)
chain: HPIPDSSPLLQFGGQVRQRYLYTDDAQQTEAHLEIREDGTVGGAADQSPESLLQLKALKPGVIQILGVKTSRFLCQRPDGALYGSLHFDPEACSFRELLLEDGYNVYQSEAHGLPLHLPGNKSPHRDPAPRGPARFLPLPGLPPALPEPPGILAPQPPDVGSSDPLSMVGPSQGRSPSYAS
modifications: FGF21 native
As for B1, the concentration for a half-maximal effect (EC50) (Test Example 2, mean of 2 runs, read-out: EC50, Mean) stood at 0.82 nM; the EC50 (Test Example 2, run 1, read-out: EC50, 1) came to 0.75 nM; the EC50 (Test Example 2, run 2, read-out: EC50, 2) was 0.88 nM; the EC50 (Test Example 9 screening, read-out: EC50) came out at 1.17 ± 0.56 nM.

The term EC50 denotes the concentration giving half of the maximal effect.

The values above are taken from patent US20240066137A1, “NOVEL PROTEIN CONJUGATE, AND USE THEREOF FOR PREVENTING OR TREATING NONALCOHOLIC STEATOHEPATITIS, OBESITY AND DIABETES” (ONEGENE BIOTECHNOLOGY INC., priority 2020, published 2024).
